The values below come from patent publication US20180148485A1 (Pieris, published 2018).

The EC50 is the midpoint of the concentration-response curve.

The target of assay [1] is T1, recombinant human CD137-Fc fusion protein (#838-4B-100, R&D Systems) (human, UniProt Q07011 24-186).
T1 construct: also called Fc-fusion of human CD137; not shown: Fc part of the bought fusion protein, not described
Briefly: SPR, CD137-Fc captured by anti-human Fc antibody on CM5 chip, 1:1 model. Here is the method: Binding affinities of the CD137-binding lipocalin mutein and the bispecific polypeptides of SEQ ID NO: 46 and SEQ ID NO: 47 to recombinant human CD137-Fc fusion protein (#838-4B-100, R&D Systems) were determined by Surface Plasmon Resonance using a Biacore T200 instrument (GE Healthcare) in analogy to Example 6. Prior to the SPR affinity assay, a CM5 sensor chip was derivatized with an anti-human Fc antibody using the Human Antibody Capture Kit (GE Healthcare # BR-1008-39) according to the manufacturer's instructions.
Four different concentrations (1000 nM, 200 nM, 40 nM and 8 nM) of the bispecific polypeptides were prepared in running buffer (10 mM HEPES, 150 mM NaCl, 0.05% v/v Surfactant P20, 3 mM EDTA, pH 7.4 (GE Healthcare)) and applied to the chip surface. Applying a flow rate of 30 μL/min, the sample contact time was 180 s and dissociation time was 600 s. All measurements were performed at 25° C. […] Prior to the protein measurements three regeneration cycles were performed for conditioning purposes. Data were evaluated with Biacore T200 Evaluation software (V 2.0). Double referencing was used and the 1:1 Binding model was used to fit the raw data.

Assay [2] addresses T2, recombinant human GPC3 (R&D Systems #2119-GP-050/CF) (human, UniProt P51654 25-559).
T2 construct: also called Glypican-3; biotinylated human GPC3
Briefly: ELISA, GPC3 coated, anti-NGAL-HRP detection. From the text: GPC3 was coated on a microtiter plate and the tested molecules were titrated. Bound molecules were detected via an HRP-labeled human NGAL-specific antibody as described in Example 14. The data was fitted with a 1:1 binding model with EC50 value and the maximum signal as free parameters, and a slope that was fixed to unity.
A general note: An ELISA detects its analyte on a solid surface through an enzyme-linked reagent.

For assay [3], the target named is T1, recombinant human CD137-Fc fusion …. Briefly: dual-binding ELISA: CD137-Fc coated, fusion titrated, biotinylated GPC3 detected with Extravidin-HRP. As for the experimental part: FIG. 16: provides a representative experiment in which the ability of two bispecific fusion polypeptides of SEQ ID NO: 46 and SEQ ID NO: 47 to bind the targets, GPC3 and CD137, simultaneously was determined. Recombinant CD137-Fc fusion protein was coated on a microtiter plate, followed by a titration of the fusion protein. Subsequently, a constant concentration of biotinylated human GPC3 was added, which was detected via HRP-labeled extravidin as described in Example 16. The data was fitted with a 1:1 binding model with EC50 value and the maximum signal as free parameters, and a slope that was fixed to unity.
The result of the experiment is depicted in FIG. 16, together with the fit curves resulting from a 1:1 binding sigmoidal fit, where the EC50 value and the maximum signal were free parameters, and the slope was fixed to unity.

The target of assay [4] is T2, recombinant human GPC3 (R&D Systems …). Briefly: SPR, biotinylated fusion captured on CAP chip, GPC3 as analyte (11-300 nM). As for the experimental part:
The data were double-referenced by subtraction of the corresponding signals measured for the control channel (loaded with Biotin CAPture reagent only) and by subtraction of buffer injections from the binding responses. Association rate constant kₐ and dissociation rate constant kd for the binding reaction were determined using Biacore T200 Evaluation Software V2.0 for data processing and kinetic fitting.

The target in assay [5] is T1, recombinant human CD137-Fc fusion …. Briefly: ELISA, CD137-Fc coated, as described in Example 3.
The target in assay [6] is T2, recombinant human GPC3 (R&D Systems …). Briefly: ELISA, GPC3 coated, anti-NGAL-HRP detection. From the text:
GPC3 was coated on a microtiter plate and the tested molecules were titrated. Bound molecules were detected via an HRP-labeled anti-human NGAL-specific antibody as described in Example 12. The data was fitted with a 1:1 binding model with EC50 value and the maximum signal as free parameters, and a slope that was fixed to unity.
This is another data set of the same source.

For assay [7], the target named is T1, recombinant human CD137-Fc fusion …. The assay is described as follows: ELISA, CD137-Fc coated, anti-human IgG-HRP detection. Here is the method: The antibody of SEQ ID NOs: 34 and 35 served as the positive control. The target was dissolved in PBS (1 μg/mL) and coated overnight on microtiter plates at 4° C. The plate was washed after each incubation step with 100 μL PBS-T five times. The plates were blocked with 2% BSA (w/v) in PBS-T for 1 h at room temperature and subsequently washed. Different concentrations of the CD137-specific antibody or the fusion polypeptides were added to the wells and incubated for 1 h at room temperature, followed by a wash step. Bound fusion protein was detected after incubation for 1 h at room temperature with 1:5000 diluted mouse anti-human IgG Fab antibody conjugated to HRP (Jackson Laboratories) in PBS-TB. After an additional wash step, fluorogenic HRP substrate (QuantaBlu, Thermo) was added to each well and the fluorescence intensity was detected using a fluorescence microplate reader.
The result of the experiment is depicted in FIG. 3, together with the fit curves resulting from a 1:1 binding sigmoidal fit, where the EC50 value and the maximum signal were free parameters, and the slope was fixed to unity.

Assay [8] shares this target. The assay is described as follows: SPR, biotinylated CD137-Fc captured on CAP chip, 1:1 model, apparent affinity. As for the experimental part:
Briefly, biotinylated CD137-Fc was captured on a sensor chip CAP and four dilutions (20, 5, 1.3 and 0.3 nM) of each tested agent (fusion protein or SEQ ID NOs: 34 and 35) were prepared in running buffer and applied to the chip surface. Applying a flow rate of 30 μL/min, the sample contact time was 180 s and dissociation time was 600 s. All measurements were otherwise performed and analyzed as described in Example 5.
(Surface plasmon resonance follows binding to a sensor surface in real time, without labels.)

Like-named read-outs stand apart in the source and are kept apart here.

T2 sequence (P51654 25-559 limits assumed): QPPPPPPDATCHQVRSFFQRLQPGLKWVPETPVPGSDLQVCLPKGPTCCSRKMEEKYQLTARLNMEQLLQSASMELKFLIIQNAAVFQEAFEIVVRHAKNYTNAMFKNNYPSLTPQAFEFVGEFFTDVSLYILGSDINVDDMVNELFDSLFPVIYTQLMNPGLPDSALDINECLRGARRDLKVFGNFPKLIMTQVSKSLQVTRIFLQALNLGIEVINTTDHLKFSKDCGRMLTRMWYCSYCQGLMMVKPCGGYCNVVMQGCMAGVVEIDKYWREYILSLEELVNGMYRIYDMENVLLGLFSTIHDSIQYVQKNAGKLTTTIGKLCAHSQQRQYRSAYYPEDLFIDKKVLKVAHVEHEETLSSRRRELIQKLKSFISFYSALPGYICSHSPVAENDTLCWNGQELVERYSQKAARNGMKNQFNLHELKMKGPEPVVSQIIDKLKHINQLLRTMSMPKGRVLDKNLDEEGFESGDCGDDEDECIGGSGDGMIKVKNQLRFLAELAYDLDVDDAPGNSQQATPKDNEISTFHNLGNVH

B1: bispecific fusion polypeptide of SEQ ID NO: 47 (designed binder)
chain: QDSTSDLIPAPPLSKVPLQQNFQDNQFQGKWYVVGVAGNGMLREDKDPLKMRATIYELKEDKSYDVTSVAFRNKKCHYKIGTFVPGSQPGEFTLGQIKSGPGETSNLVRVVSTNYNQHAMVFFKEVRQNREWFFITLYGRTKELTSELKENFIRFSKSLGLPENHIVFPVPIDQCIDGGGGGSGGGGSQDSTSDLIPAPPLSKVPLQQNFQDNQFHGKWYVVGQAGNIRLREDKDPIKMMATIYELKEDKSYDVTMVKFDDKKCMYDIWTFVPGSQPGEFTLGKIKSFPGHTSSLVRVVSTNYNQHAMVFFKFVFQNREEFYITLYGRTKELTSELKENFIRFSKSLGLPENHIVFPVPIDQCIDGGGGGSGGGGSQDSTSDLIPAPPLSKVPLQQNFQDNQFHGKWYVVGQAGNIRLREDKDPIKMMATIYELKEDKSYDVTMVKFDDKKCMYDIWTFVPGSQPGEFTLGKIKSFPGHTSSLVRVVSTNYNQHAMVFFKFVFQNREEFYITLYGRTKELTSELKENFIRFSKSLGLPENHIVFPVPIDQCIDG
For the molecule B1, the Kd in assay [1] came out at 0.6 pM; in assay [4], 3500 pM. Further, the EC50 in assay [2] amounted to 160 pM; in assay [3], 7470 pM; in assay [5] it was 260 pM.

B2: bispecific fusion polypeptide of SEQ ID NO: 46 (designed binder)
chain: QDSTSDLIPAPPLSKVPLQQNFQDNQFQGKWYVVGVAGNGMLREDKDPLKMRATIYELKEDKSYDVTSVAFRNKKCHYKIGTFVPGSQPGEFTLGQIKSGPGETSNLVRVVSTNYNQHAMVFFKEVRQNREWFFITLYGRTKELTSELKENFIRFSKSLGLPENHIVFPVPIDQCIDGGGGGSGGGGSQDSTSDLIPAPPLSKVPLQQNFQDNQFHGKWYVVGQAGNIRLREDKDPIKMMATIYELKEDKSYDVTMVKFDDKKCMYDIWTFVPGSQPGEFTLGKIKSFPGHTSSLVRVVSTNYNQHAMVFFKFVFQNREEFYITLYGRTKELTSELKENFIRFSKSLGLPENHIVFPVPIDQCIDG
Turning to B2, the Kd amounted to 1.6 pM in assay [1] and 4300 pM in assay [4]. Moreover, the EC50 in assay [2] turned out to be 140 pM; in assay [3] it was 7300 pM; in assay [5] it was 200 pM.

B3: fusion polypeptide of SEQ ID NOs: 53 and 54 (bispecific antibody, human IgG2, lambda)
chain 1: EVQLVQSGAEVKKPGESLRISCKGSGYSFSTYWISWVRQMPGKGLEWMGKIYPGDSYTNYSPSFQGQVTISADKSISTAYLQWSSLKASDTAMYYCARGYGIFDYWGQGTLVTVSSASTKGPSVFPLAPCSRSTSESTAALGCLVKDYFPEPVTVSWNSGALTSGVHTFPAVLQSSGLYSLSSVVTVPSSNFGTQTYTCNVDHKPSNTKVDKTVERKCCVECPPCPAPPVAGPSVFLFPPKPKDTLMISRTPEVTCVVVDVSHEDPEVQFNWYVDGVEVHNAKTKPREEQFNSTFRVVSVLTVVHQDWLNGKEYKCKVSNKGLPAPIEKTISKTKGQPREPQVYTLPPSREEMTKNQVSLTCLVKGFYPSDIAVEWESNGQPENNYKTTPPMLDSDGSFFLYSKLTVDKSRWQQGNVFSCSVMHEALHNHYTQKSLSLSPGKGGGGSGGGGSGGGGSQDSTSDLIPAPPLSKVPLQQNFQDNQFQGKWYVVGRAGNVGLREDKDPPKMWATIYELKEDKSYDVTNVRFARKKCTYSIGTFVPGSQPGEFTLGQIKSEPGGTANLVRVVSTNYNQHAMVFFKEVYQNREIFFIILYGRTKELTSELKENFIRFSKSLGLPENHIVFPVPIDQCIDG
chain 2: SYELTQPPSVSVSPGQTASITCSGDNIGDQYAHWYQQKPGQSPVLVIYQDKNRPSGIPERFSGSNSGNTATLTISGTQAMDEADYYCATYTGFGSLAVFGGGTKLTVLGQPKAAPSVTLFPPSSEELQANKATLVCLISDFYPGAVTVAWKADSSPVKAGVETTTPSKQSNNKYAASSYLSLTPEQWKSHRSYSCQVTHEGSTVEKTVAPTECS
On to B3, for which the EC50 in assay [6] worked out at 620 pM.

B4: lipocalin mutein of SEQ ID NO: 8 (designed binder)
chain: QDSTSDLIPAPPLSKVPLQQNFQDNQFQGKWYVVGVAGNGMLREDKDPLKMRATIYELKEDKSYDVTSVAFRNKKCHYKIGTFVPGSQPGEFTLGQIKSGPGETSNLVRVVSTNYNQHAMVFFKEVRQNREWFFITLYGRTKELTSELKENFIRFSKSLGLPENHIVFPVPIDQCIDG
With B4, in assay [2], the EC50 came to 240 pM.

B5: CD137-specific antibody of SEQ ID NOs: 34 and 35 (antibody, human IgG4 S228P, kappa, V domains shown)
VH: QVQLQQWGAGLLKPSETLSLTCAVYGGSFSGYYWSWIRQSPEKGLEWIGEINHGGYVTYNPSLESRVTISVDTSKNQFSLKLSSVTAADTAVYYCARDYGPGNYDWYFDLWGRGTLVTVSS
VL: EIVLTQSPATLSLSPGERATLSCRASQSVSSYLAWYQQKPGQAPRLLIYDASNRATGIPARFSGSGSGTDFTLTISSLEPEDFAVYYCQQRSNWPPALTFGGGTKVEIKR
notes: also called antibody 20H4.9
Take B5: the EC50 in assay [7] amounted to 1500 pM. Moreover, in assay [8], the Kd is 92 pM.
